# According to the RNAGym collection of RNA variant scans (doi:10.7554/elife.90254):
# B1: OR4K15 (parent)
# chain: GUUAACGGUCAUAGGCCAUGGAAACUAGGAGCACCAUUUCGCUGCCAGUGAAGAAAUGAACAAAGAAAAUCUGGGCCAGGCAGGCAUCAAAAGAAAUAGUCUUGCGCUCAACCAGAAAGUCUGUAAUCAUUUUAAGGGUA
# Variants of: B1
# Assay: self-cleavage, relative activity (ratio to wild type); higher = more cleavage; in vitro, sequencing; the parent is a self-cleaving ribozyme
row,Variant,self-cleavage
1,A30U U43C,1.88
2,A30G A94G,1.29
3,G31U A36G,2.23
4,A30G A66U,1.22
5,A30G A66G,1.21
6,C32U A51G,1.88
7,A30U U100C,2.08
8,A30U A47U,0.19
9,C32U,1.28
10,C32A,1.2
11,C32G,1.25
12,C32A U87C,1.38
13,G31A U38C,1.93
14,A30G C105U,0.17
15,A30U A51G,1.55
16,A30U C113U,0.04
17,A30G U39A,0.39
18,A30G U39C,1.05
19,A30U A52G,1.08
20,A30G U38A,0.72
21,A30G U38C,1.62
22,C32A A63G,1.46
23,A30U A33G,0.69
24,G31U A52G,1.71

row,Variant,self-cleavage
1,A30G C101A,0.14
2,A30G G75C,0.19
3,A30U A114U,0.11
4,A30G U103A,0.17
5,A30G U133C,1.8
6,A30G A96G,1.25
7,A30G A96U,1.72
8,A30U A36U,1.67
9,A30G A82U,0.25
10,A30G A82G,0.6
11,G31U A60G,1.37
12,A30G A89U,1.09
13,A30G A89C,0.8
14,A30G A89G,0.71
15,A30U A68U,1.5
16,G31C U87C,2.1
17,A30G C71U,0.62
18,A30G G106A,0.07
19,A30G G106U,0.04
20,A30U A56G,0.82
21,G31U A92G,1.27
22,G31U A129G,1.78
23,G31A A78U,0.43
24,G31A A78G,0.27

row,Variant,self-cleavage
1,A30U U38C,1.69
2,A30G U57C,1.29
3,G31A G137U,1.5
4,A30G U130C,0.6
5,A30G U130G,1.09
6,C32A A56G,0.28
7,A30U A91G,1.35
8,A30U C77U,1.77
9,A30G U139A,1.46
10,A30G U139C,1.03
11,A30G G123U,0.53
12,A30G A78G,0.11
13,A30G A78U,0.41
14,A30U G93A,1.63
15,G31A U139A,1.78
16,G31A U139C,1.82
17,A30U A116G,1.27
18,A30U G115A,0.22
19,A30U U127C,0.71
20,G31A A60G,0.77
21,A30G U100C,1.93
22,A30G U100A,0.49
23,A30U A86G,1.87
24,G31A U132C,1.72

row,Variant,self-cleavage
1,A30G U49G,1.48
2,C32G A96U,1.87
3,A30U U102C,1.81
4,A30G C40A,1.42
5,A30G G58A,0.67
6,A30U A55G,1.55
7,A30U G138A,2.22
8,A30G A111G,0.05
9,G31U A47G,1.05
10,A30G A95C,1.26
11,A30G A95U,1.42
12,A30U A82G,0.52
13,G31A C105U,0.25
14,A30U A140G,0.96
15,A30G A64G,1.35
16,A30U U70A,1.71
17,A30U U70C,0.71
18,A30G A60U,0.79
19,A30G A126U,0.87
20,A30G A126G,1.23
21,A30U C81U,0.51
22,A30U U72C,0.27
23,A30U U72A,0.27
24,A30G C34A,0.85

row,Variant,self-cleavage
1,A30G A117C,0.61
2,A30G A117U,0.99
3,A30U U39C,0.9
4,A30U U39A,2.07
5,A30G A91U,1.67
6,A30G A91G,0.24
7,A30G A67G,0.91
8,G31U A111U,0.15
9,A30U A110G,0.1
10,A30U A64G,1.56
11,C32A A110U,2.04
12,A30U C107A,0.01
13,A30G A90G,1.37
14,G31A U57C,1.2
15,A30G A68G,1.49
16,A30U U49A,1.3
17,A30U U49C,1.48
18,A30G G44A,1.15
19,A30U U120C,1.29
20,A30G A114C,0.07
21,A30G C45U,1.06
22,A30G A69G,1.27
23,C32U A55G,0.65
24,G31U U102A,2.03

row,Variant,self-cleavage
1,G31A U43A,2.08
2,C32A C128A,0.81
3,A30G A86G,1.41
4,A30G A86U,1.37
5,G31A A92G,1.57
6,A30U A118G,1.45
7,A30U U108A,0.05
8,A30U U37C,0.84
9,G31A A55G,1.7
10,G31U A118G,1.06
11,G31A A69U,2.21
12,A30G A116G,0.66
13,A30G A116C,0.03
14,C32A A90G,1.27
15,C32G A54U,1.14
16,A30G U37G,1.08
17,A30G G79A,0.17
18,A30U A54C,1.77
19,A30G C109A,0.23
20,G31U A54G,1.34
21,A30U,1.24
22,G31A A117G,1.42
23,A30G A62C,1.38
24,A30G A63U,1.17

row,Variant,self-cleavage
1,A30G U132C,1.36
2,C32A U132C,0.85
3,A30G G137U,0.71
4,A30G G137A,1.06
5,G31C U139C,1.53
6,A30G G31A,1.61
7,G31A A59U,0.76
8,G31A A59G,1.04
9,A30U A129G,1.24
10,A30U A129U,0.63
11,A30G C112A,0.02
12,A30G C112U,0.04
13,A30G A110G,0.15
14,G31C U133C,1.95
15,G31A A52U,1.32
16,G31A A86U,0.91
17,G31A A86G,1.75
18,A30U A60G,0.45
19,A30U A59G,0.34
20,A30G U72A,0.36
21,A30G U72C,0.24
22,A30U A63G,2.01
23,A30G U87C,1.39
